For 13 molecules, EC50 and Shift % results are on record in patent US20240182563A1 (GENOME, published 2024).

Positions count from the first letter of the chain named.

The term EC50 denotes the concentration that produces a half-maximal response. Low readings indicate higher potency in that assay, high ones lower potency in that assay.

B1: anti-CNTN4 scFv-hCk S6 (scFv, part only; not given: linker and kappa constant region, not shown: a dimerising Fc or GST)
scFv, part: ALTQPSSVSANPGETVKITCSGGSGNYGWYQQKSPGSAPVTVIYNGNNRPSDIPSRFSGSGSGSTNTLAITGVQAEDEAVYFCGGYDGTIDAFGAGTTLTVLAVTLDESEGGLQTPGGALSLVCKASGFTFSSFNMFWVRQAPGKGLEYVAEISGGGGSTWYAPAVKGRATISRDNGQSTVRLQLNNLRAEDTGTYYCAKSADTWSYGAATIDAWGHGTEVIVSS
B2: anti-CNTN4 scFv-hCk S4 (scFv, part only; not given: linker and kappa constant region, not shown: a dimerising Fc or GST)
scFv, part: ALTQPSSVSANPGESVKITCSGGGSSYYGWYQQKSPGSAPVTLIYQNTNRPSNIPSRFSGSGSGSTGTLTITGVRAEDEAVYYCGGYDGSTDVFGAGTTLTVLAVTLDESEGGLQTPGGALSLVCKASGFTFSSFNMFWVRQAPGKGLEYVAEISGGGGSTWYASAVKGRATISRDNGQSTVRLQLNNLRAEDTGTYYCAKSADTWSYGAATIDAWGHGTEVIVSS
B3: anti-CNTN4 scFv-hCk S131 (scFv, part only; not given: linker and kappa constant region, not shown: a dimerising Fc or GST)
scFv, part: B2 scFv, part with P12L, E14G, S15T, S165P
B4: anti-CNTN4 scFv-hCk S99 (scFv, part only; not given: linker and kappa constant region, V domains shown, not shown: another chain or arm of the molecule; a dimerising Fc or GST; small tags and cut ends)
VL: ALTQPSSVSANPGETVKITCSGGASYAGNYYYGWYQQKSPGSAPVTVIYNNNQRPSDIPSRFSGSLSGSTNTLTITGVQADDEAVYFCGSDDSSAGYTGIFGAGTTLTVL
VH: AVTLDESGGGLQTPGGALSLVCKASEFTFSGYGMHWVRQAPGKGLEFVAEISNTGSWTGYGAAVKGRATISRDNGQSTVRLQLNNLKADDTATYYCAKVGGRGWCGRSGCADDIDAWGHGTEVIVSS
B5: anti-CNTN4 scFv-hCk S24 (scFv, part only; not given: linker and kappa constant region, not shown: a dimerising Fc or GST)
scFv, part: ALTQPSSVSANPGETVEITCSGGSGSYGWYQQKAPGSAPVTVIYDNTNRPSNIPSRFSGSGSDSTGTLTITGVQADDEAVYYCGSYDSIEVIFGAGTTLTVLAVTLDESGGGLHTPGGALSLVCKASGFTFSSYGMAWVRQAPGKGLEWVAGITSSGSSAGYGPAVKGRATISRDNGQSTVRLQLNNLRAEDTATYYCAKDGYIYSGGDSDSIDAWGHGTEVIVSS
B6: anti-CNTN4 scFv-hCk S46 (scFv, part only; not given: linker and kappa constant region, not shown: a dimerising Fc or GST)
scFv, part: B5 scFv, part with E78K, G208A
B7: anti-CNTN4 scFv-hCk S129 (scFv, part only; not given: linker and kappa constant region, not shown: a dimerising Fc or GST)
scFv, part: ALTQPSSVSANLGETVKITCSGSSGSYGWYQQKSPGSAPVTLIYDNTNRPSDIPSRFSGSGSGSTGTLTITGVRAEDEAVYYCGGYDGSTDVFGAGTTLTVLAVTLDESEGGLQTPGGALSLVCKASGFTFSSFNMFWVRQAPGKGLEYVAEISGGGGSTWYAPAVKGRATISRDNGQSTVRLQLNNLRAEDTGTYYCAKSADTWSYGAATIDAWGHGTEVIVSS
B8: anti-CNTN4 scFv-hCk S132 (scFv, part only; not given: linker and kappa constant region, V domains shown, not shown: another chain or arm of the molecule; a dimerising Fc or GST; small tags and cut ends)
VL: ALTQPSSVSANPGETVKITCSGGGSSTYYGWYQQKSPGSAPVTVIYNNNNRPSDIPSRFSGSGSGSTGTLTITGVRAEDEAVYYCGGYDGSTDVFGAGTTLTVL
VH: AVTLDESGGGLQTPGGALSLVCKASGFTFSSFNMFWVRQAPGKGLEYVAEISGGGGSTWYAPAVKGRATISRDNGQSTVRLQLNNLRAEDTGTYYCAKSADTWSYGAATIDAWGHGTEVIVSS
B9: anti-CNTN4 scFv-hCk S134 (scFv, part only; not given: linker and kappa constant region, V domains shown, not shown: another chain or arm of the molecule; a dimerising Fc or GST; small tags and cut ends)
VL: ALTQPSSVSANPGETVKITCSGGTYSYGNYYYGWYQQKSPGSAPVTVIYNNNNRPSDIPSRFSGSGSGSTGTLTITGVRAEDEAVYYCGGYDGSTDVFGAGTTLTVL
VH: B8 VH with G8E
B10: anti-CNTN4 scFv-hCk S135 (scFv, part only; not given: linker and kappa constant region, V domains shown, not shown: another chain or arm of the molecule; a dimerising Fc or GST; small tags and cut ends)
VL: ALTQPSSVSANPGETVKITCSGGGSSSYYGWYQQKSPGSAPVTVIYYNNRPSDIPSRFSGSGSGSTGTLTITGVRAEDEAVYYCGGYDGSTDVFGAGTTLTVL
VH: B8 VH with G8E
B11: anti-CNTN4 scFv-hCk S138 (scFv, part only; not given: linker and kappa constant region, V domains shown, not shown: another chain or arm of the molecule; a dimerising Fc or GST; small tags and cut ends)
VL: ALTQPSSVSANPGETVNITCSGGGSYAGSYYYGWYQQKAPGSAPVTVIYDSTNRPSNIPSRFSGSLSGSTNTLTITGVRAEDEAVYYCGGYDGSTDVFGAGTTLTVL
VH: B8 VH with G8E
B12: anti-CNTN4 scFv-hCk S1 (scFv, part only; not given: linker and kappa constant region, not shown: a dimerising Fc or GST)
scFv, part: ALTQPSSVSANPGETVKITCSGGSSYGWYQQKSPGSAPVTVIYDNTNRPSNIPSRFSGSKSGSTNTLTITGVRAEDEAVYFCGGYDSSIDAFGAGTTLTVLAVTLDESEGGLQTPGGALSLVCKASGFTFSSFNMFWVRQAPGKGLEYVAEISGGGGSTWYAPAVKGRATISRDNGQSTVRLQLNNLRAEDTGTYYCAKSADTWSYGAATIDAWGHGTEVIVSS
B13: anti-CNTN4 scFv-hCk S137 (scFv, part only; not given: linker and kappa constant region, not shown: a dimerising Fc or GST)
scFv, part: B12 scFv, part with R73Q, F81Y, S87G, I89T

The target of one assay is T1, mouse CNTN4-rabbit Fc (mouse; rabbit, UniProt Q69Z26 19-1000, limits assumed).
T1 construct: not shown: rabbit Fc
T1 sequence (looked up): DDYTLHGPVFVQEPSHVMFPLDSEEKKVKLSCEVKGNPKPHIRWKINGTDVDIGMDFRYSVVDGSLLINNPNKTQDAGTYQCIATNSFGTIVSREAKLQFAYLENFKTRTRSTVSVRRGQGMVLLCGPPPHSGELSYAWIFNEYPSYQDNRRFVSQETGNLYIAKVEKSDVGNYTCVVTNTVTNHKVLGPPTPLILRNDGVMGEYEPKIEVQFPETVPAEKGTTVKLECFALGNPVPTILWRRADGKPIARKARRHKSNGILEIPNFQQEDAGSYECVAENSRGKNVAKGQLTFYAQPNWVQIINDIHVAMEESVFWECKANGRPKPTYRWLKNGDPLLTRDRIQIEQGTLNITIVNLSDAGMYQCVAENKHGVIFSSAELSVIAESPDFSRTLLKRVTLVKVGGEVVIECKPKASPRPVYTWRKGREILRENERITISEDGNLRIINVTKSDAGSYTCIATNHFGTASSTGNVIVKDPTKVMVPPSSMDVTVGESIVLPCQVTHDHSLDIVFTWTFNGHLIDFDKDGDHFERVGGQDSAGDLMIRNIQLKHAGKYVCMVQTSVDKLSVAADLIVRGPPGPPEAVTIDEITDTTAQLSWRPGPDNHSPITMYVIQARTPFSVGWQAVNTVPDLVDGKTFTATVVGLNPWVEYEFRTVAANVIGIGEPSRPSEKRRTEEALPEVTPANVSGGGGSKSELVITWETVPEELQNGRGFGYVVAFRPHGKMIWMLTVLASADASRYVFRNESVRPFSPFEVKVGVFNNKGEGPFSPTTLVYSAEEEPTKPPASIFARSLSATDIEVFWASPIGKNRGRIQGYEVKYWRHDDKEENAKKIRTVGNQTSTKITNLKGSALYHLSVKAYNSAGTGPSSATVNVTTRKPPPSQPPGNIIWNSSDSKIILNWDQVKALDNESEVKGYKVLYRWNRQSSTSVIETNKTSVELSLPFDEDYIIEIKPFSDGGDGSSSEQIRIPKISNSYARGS
As to the kind of experiment: ELISA, plate coated with antigen-rabbit Fc, anti-human kappa-HRP.
In turn, B1 returned an EC50 of 1.85 nM.

In the case of B2, the EC50 worked out at 1.15 nM.

With B3, the EC50 is 0.56 nM.

With B4, the EC50 is 3.64 nM.

B5 gave an EC50 of 2.07 nM.

As to B6, the EC50 stood at 1.2 nM. Against the preceding molecule, the EC50 is about 1.7-fold lower.

As for B7, the EC50 was 0.37 nM.

Consider B8, for which the EC50 came to 0.72 nM.

The molecule B9 gave an EC50 of 0.75 nM.

With B10, the half-maximal effective concentration (EC50) was 0.71 nM.

Consider B11, for which the EC50 stood at 1.06 nM.

Turning to B12, the EC50 came out at 1.53 nM.

Take B13: the EC50 turned out to be 0.52 nM.

In another assay the target is T2, human CNTN4-rabbit Fc (human; rabbit, UniProt Q8IWV2 19-1000, limits assumed).
T2 construct: not shown: rabbit Fc
T2 sequence (looked up): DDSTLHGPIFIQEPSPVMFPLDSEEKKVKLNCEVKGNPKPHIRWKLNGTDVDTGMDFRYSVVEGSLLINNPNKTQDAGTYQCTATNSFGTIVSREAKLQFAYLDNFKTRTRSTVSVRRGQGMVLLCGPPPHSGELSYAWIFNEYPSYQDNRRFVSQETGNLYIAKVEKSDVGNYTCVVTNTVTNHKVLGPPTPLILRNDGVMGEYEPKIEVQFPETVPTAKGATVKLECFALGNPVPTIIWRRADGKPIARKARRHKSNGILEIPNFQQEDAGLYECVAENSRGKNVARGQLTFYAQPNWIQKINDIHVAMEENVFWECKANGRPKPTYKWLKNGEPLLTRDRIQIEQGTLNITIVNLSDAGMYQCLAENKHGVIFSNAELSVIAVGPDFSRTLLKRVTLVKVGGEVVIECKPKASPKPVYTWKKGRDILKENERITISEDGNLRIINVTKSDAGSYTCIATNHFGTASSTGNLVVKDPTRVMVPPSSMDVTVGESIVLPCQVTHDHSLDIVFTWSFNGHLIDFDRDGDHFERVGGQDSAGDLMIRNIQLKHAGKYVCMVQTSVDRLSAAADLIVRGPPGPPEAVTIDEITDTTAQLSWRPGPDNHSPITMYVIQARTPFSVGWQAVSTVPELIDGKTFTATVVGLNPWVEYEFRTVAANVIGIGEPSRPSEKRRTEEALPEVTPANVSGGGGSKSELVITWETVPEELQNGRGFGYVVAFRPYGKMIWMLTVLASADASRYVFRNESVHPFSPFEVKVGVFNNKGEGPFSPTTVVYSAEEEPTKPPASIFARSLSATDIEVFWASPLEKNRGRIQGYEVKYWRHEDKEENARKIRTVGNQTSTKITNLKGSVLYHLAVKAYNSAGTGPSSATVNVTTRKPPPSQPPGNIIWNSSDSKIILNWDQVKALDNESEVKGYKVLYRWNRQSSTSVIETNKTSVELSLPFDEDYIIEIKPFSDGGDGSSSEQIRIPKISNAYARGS
The assay is described as above.
Turning to B1, the EC50 stood at 0.37 nM. This counts as sub-nanomolar.

Molecule B2 yielded an EC50 of 2.6 nM.

Consider B3, for which the EC50 was 0.74 nM.

Molecule B4 had an EC50 of 8.34 nM.

Take B5: the EC50 is 1.12 nM.

B6 gave an EC50 of 1.22 nM.

B7 gave an EC50 of 0.55 nM.

Molecule B8 showed an EC50 of 1.16 nM. This EC50 is about 2.1-fold higher than that of the molecule before.

For B9, the EC50 was 0.75 nM.

As for B10, the EC50 came out at 1.06 nM. This EC50 and that of the molecule before are within 1.5-fold of each other.

Regarding B11, the EC50 was determined as 2.37 nM. Compared with the last molecule, the EC50 is about 2.2-fold higher.

Molecule B12 returned an EC50 of 4.44 nM.

Molecule B13 came in with an EC50 of 0.41 nM. Against the preceding molecule, the EC50 is about 11-fold lower.

Another assay addresses T3, human CNTN4 antigen expressed on the cell membrane of 293FT cells (human) (UniProt Q8IWV2).
T3 sequence (looked up): T2 sequence (looked up)
The experiment in a line: FACS, 293FT cells transfected with human CNTN4, 40 ug/mL, anti-hCk-PE. Background: A flow cytometer gives signals particle by particle.
Take B1: the Shift % amounted to 14.7%.

B2: the Shift % was found to be 15.4%.

B3: the Shift % is 16.6%.

For B4, the Shift % is 20.5%.

For B5, the Shift % was 5.63%.

As for B6, the Shift % came out at 8.19%.

Regarding B7, the Shift % was 16%.

As to B8, the Shift % worked out at 16.1%.

Take B9: the Shift % was 18%.

Take B10: the Shift % was determined as 18.2%.

On to B11, for which the Shift % is 15.8%.

For the molecule B12, the Shift % is 13.8%.

With B13, the Shift % was found to be 15.3%.
